*: point of attachment. AMC = Cc1cc(=O)oc2cc(N*)ccc12; CH2Cl = ClC*
T1: caspase-1 (Homo sapiens, UniProt P29466)
T1 sequence (P29466 120-297 limits assumed): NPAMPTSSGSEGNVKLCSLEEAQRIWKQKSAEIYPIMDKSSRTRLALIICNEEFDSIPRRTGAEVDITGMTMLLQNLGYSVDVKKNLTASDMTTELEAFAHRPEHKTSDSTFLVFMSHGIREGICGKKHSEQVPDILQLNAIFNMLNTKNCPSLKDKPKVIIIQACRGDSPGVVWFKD
T1 sequence (P29466 317-404 limits assumed): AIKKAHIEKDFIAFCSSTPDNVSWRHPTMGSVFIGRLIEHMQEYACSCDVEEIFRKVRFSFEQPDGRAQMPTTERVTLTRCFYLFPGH

T2: caspase-3 (Homo sapiens, UniProt P42574)
T2 sequence (P42574 29-175 limits assumed): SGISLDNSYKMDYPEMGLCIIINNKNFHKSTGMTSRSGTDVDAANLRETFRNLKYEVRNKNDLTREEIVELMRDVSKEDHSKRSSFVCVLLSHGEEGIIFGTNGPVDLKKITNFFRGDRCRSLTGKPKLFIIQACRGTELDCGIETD
T2 sequence (P42574 176-277 limits assumed): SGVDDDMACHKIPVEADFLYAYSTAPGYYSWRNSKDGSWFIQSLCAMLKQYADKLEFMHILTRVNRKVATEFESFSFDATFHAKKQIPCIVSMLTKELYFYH

T3: caspase-4 (Homo sapiens, UniProt P49662)
T3 sequence (P49662 81-270 limits assumed): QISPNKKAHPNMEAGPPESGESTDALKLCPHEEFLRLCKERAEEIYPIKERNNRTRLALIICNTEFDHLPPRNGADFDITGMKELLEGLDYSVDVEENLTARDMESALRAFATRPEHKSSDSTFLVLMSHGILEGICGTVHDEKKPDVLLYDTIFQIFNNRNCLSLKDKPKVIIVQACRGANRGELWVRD
T3 sequence (P49662 290-377 limits assumed): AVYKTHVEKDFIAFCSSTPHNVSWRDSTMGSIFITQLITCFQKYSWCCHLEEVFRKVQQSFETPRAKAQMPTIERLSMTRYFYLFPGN

T4: caspase-6 (Homo sapiens, UniProt P55212)
T4 sequence (P55212 24-179 limits assumed): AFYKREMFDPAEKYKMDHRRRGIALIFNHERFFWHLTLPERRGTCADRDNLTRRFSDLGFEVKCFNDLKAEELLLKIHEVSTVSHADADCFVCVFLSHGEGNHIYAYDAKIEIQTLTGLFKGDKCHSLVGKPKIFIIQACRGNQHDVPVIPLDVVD
T4 sequence (P55212 194-293 limits assumed): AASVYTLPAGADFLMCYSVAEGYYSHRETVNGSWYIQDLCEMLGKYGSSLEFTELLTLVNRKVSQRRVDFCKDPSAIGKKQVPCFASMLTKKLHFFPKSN

T5: caspase-7 (Homo sapiens, UniProt P55210)
T5 sequence (P55210 24-198 limits assumed): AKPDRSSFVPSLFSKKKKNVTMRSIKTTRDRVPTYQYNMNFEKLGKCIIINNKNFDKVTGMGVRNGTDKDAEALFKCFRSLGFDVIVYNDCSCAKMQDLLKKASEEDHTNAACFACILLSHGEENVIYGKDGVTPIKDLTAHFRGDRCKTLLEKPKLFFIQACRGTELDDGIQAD
T5 sequence (P55210 207-303 limits assumed): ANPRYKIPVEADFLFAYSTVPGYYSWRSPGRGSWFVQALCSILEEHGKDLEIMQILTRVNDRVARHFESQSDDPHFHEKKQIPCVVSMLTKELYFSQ

T6: caspase-10 (Homo sapiens, UniProt Q92851)
T6 sequence (Q92851 220-415 limits assumed): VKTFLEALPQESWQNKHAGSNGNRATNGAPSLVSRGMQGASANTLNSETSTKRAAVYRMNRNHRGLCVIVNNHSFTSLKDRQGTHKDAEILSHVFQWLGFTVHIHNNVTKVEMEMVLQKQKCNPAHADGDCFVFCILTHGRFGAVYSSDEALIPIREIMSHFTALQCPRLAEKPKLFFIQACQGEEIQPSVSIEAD
T6 sequence (Q92851 416-521 limits assumed): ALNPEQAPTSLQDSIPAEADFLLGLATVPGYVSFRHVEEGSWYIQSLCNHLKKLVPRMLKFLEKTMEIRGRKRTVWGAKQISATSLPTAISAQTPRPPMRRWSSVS

T7: caspase-9 (full-length) (Homo sapiens, UniProt P55211)
T7 sequence (P55211 1-315 limits assumed): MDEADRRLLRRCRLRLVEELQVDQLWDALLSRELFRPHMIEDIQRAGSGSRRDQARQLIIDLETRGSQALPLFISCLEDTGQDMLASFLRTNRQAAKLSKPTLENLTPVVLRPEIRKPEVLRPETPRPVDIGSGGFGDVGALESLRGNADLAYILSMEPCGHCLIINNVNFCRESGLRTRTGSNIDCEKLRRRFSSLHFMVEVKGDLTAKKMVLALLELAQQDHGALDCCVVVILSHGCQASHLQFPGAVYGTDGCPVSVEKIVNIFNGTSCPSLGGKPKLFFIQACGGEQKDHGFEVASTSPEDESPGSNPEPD
T7 sequence (P55211 331-416 limits assumed): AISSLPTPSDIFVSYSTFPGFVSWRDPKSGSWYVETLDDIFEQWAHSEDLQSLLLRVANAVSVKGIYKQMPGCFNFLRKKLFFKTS

T8: caspase-5 (Homo sapiens, UniProt P51878)
T8 sequence (P51878 137-327 limits assumed): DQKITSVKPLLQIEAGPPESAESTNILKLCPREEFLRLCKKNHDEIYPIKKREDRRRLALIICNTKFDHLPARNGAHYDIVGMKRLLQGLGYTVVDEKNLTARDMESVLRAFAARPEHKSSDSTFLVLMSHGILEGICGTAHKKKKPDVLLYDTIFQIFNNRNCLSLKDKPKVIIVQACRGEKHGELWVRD
T8 sequence (P51878 347-434 limits assumed): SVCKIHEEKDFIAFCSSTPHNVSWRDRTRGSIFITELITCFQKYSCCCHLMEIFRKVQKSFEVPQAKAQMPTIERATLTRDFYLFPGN

T9: caspase-11 (Mus musculus, UniProt P70343)
T9 sequence (P70343 81-266 limits assumed): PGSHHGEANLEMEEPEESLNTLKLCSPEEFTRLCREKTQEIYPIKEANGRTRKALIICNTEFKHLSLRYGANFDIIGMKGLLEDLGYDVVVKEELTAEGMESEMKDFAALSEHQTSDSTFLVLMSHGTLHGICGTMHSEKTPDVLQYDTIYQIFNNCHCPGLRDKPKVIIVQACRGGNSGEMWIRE
T9 sequence (P70343 286-373 limits assumed): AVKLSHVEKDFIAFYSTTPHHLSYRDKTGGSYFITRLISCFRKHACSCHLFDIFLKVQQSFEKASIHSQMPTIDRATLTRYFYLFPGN


How the values were obtained:
caspase-1 = biological target: T1, caspase-1; test: In vitro substrate kinetics, caspase-1; format: biochemical; conditions: caspase-1, 0.25 activity units/μL
caspase-3 = biological target: T2, caspase-3; test: In vitro substrate kinetics, caspase-3; format: biochemical; conditions: caspase-3, 0.25 activity units/μL
caspase-4 = biological target: T3, caspase-4; test: In vitro substrate kinetics, caspase-4; format: biochemical; conditions: caspase-4, 0.25 activity units/μL
caspase-6 = biological target: T4, caspase-6; test: In vitro substrate kinetics, caspase-6; format: biochemical; conditions: caspase-6, 0.25 activity units/μL
caspase-7 = biological target: T5, caspase-7; test: In vitro substrate kinetics, caspase-7; format: biochemical; conditions: caspase-7, 0.25 activity units/μL
caspase-8 = caspase-8 (Homo sapiens, UniProt Q14790); test: In vitro substrate kinetics, caspase-8; format: biochemical; conditions: for K M / Relative k cat/K M / V max: caspase-8, 0.25 activity units/μL
caspase-10 = biological target: T6, caspase-10; test: In vitro substrate kinetics, caspase-10; format: biochemical; conditions: for K M / Relative k cat/K M / V max: caspase-10, 0.25 activity units/μL
caspase-9 (full-length) = biological target: T7, caspase-9 (full-length); test: In vitro substrate kinetics, caspase-9; conditions: caspase-9, 1 activity unit/μL, different preparation
caspase-5 = biological target: T8, caspase-5; test: In vitro substrate kinetics, caspase-5; format: biochemical
caspase-11 = biological target: T9, caspase-11; test: In vitro substrate kinetics, caspase-11; format: biochemical
[1] = biological target: Caspase-9 (full-length) (human), (recombinant) (human) (UniProt P55211)
[2] = caspase-5, 0.25 activity units/μL
[3] = mouse caspase-11, 0.25 activity units/μL

Sequence of caspase-8 (Q14790 217-374 limits assumed): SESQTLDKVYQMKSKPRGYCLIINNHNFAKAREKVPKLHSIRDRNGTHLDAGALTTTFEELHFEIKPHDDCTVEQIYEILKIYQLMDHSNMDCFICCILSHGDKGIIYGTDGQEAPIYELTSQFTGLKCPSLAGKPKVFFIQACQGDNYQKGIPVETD
Sequence of caspase-8 (Q14790 385-479 limits assumed): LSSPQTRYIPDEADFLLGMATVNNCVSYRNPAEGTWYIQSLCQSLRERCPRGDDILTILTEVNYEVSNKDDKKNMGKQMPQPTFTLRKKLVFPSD

K M (caspase-1) [µM] | Relative k cat/K M (caspase-1) | V max (caspase-1) [RFU/min] | Relative k cat/K M (caspase-3) | K M (caspase-4) [µM] | Relative k cat/K M (caspase-4) | V max (caspase-4) [RFU/min] | Relative k cat/K M (caspase-6) | Relative k cat/K M (caspase-7) | K M (caspase-8) [µM] | Relative k cat/K M (caspase-8) | V max (caspase-8) [RFU/min] | K M (caspase-10) [µM] | Relative k cat/K M (caspase-10) | V max (caspase-10) [RFU/min] | Relative k cat/K M (caspase-9 (full-length)) | Molecule | other results
47.5 ± 30.8 | 1.41 ± 0.43 | 44.68 ± 15.51 | 482 ± 76.5 | 702 ± 76.3 | 1.27 ± 0.18 | 862.73 ± 31.55 | 13.3 ± 2.24 | 561 ± 81.2 | 0.75 ± 0.12 | 310 ± 60.4 | 218.27 ± 2.74 | 70.3 ± 14.6 | 7.20 ± 1.02 | 476.26 ± 38.71 | did not cleave | Ac-DEVD-AMC [reference compound] | K M (caspase-3): 2.07 ± 0.36 µM; V max (caspase-3): 940.88 ± 31.57 RFU/min; K M (caspase-6): 35.3 ± 5.12 µM; V max (caspase-6): 455.67 ± 64.18 RFU/min; K M (caspase-7): 2.36 ± 0.36 µM; V max (caspase-7): 1266.91 ± 38.79 RFU/min
93.9 ± 6.26 | 5.01 ± 0.41 | 465.55 ± 10.25 | did not detect processing | 1867 ± 388 | 1.44 ± 0.18 | 2546.06 ± 156.63 | did not detect processing | did not detect processing | 9.98 ± 0.37 | 59.2 ± 3.26 | 590.08 ± 30.37 | 87.9 ± 5.38 | 10.4 ± 1.30 | 898.63 ± 57.69 | 0.15 | N-acetyl-Leu-Glu-Ser-Asp-aminomethylcoumarin (Ac-LESD-{AMC}; SMILES CC(=O)N[C@@H](CC(C)C)C(=O)N[C@@H](CCC(=O)O)C(=O)N[C@@H](CO)C(=O)N[C@@H](CC(=O)O)C(=O)Nc1ccc2c(C)cc(=O)oc2c1) [Ac-LESD-AMC] | catalytic efficiency within x-fold of preferred substrate Ac-WEHD-AMC (caspase-5; caspase-5): ≤ 5 fold; K M (caspase-5; [2]): 154 ± 13.5 µM; Relative k cat/K M (caspase-5; [2]): 4.65 ± 0.43; V max (caspase-5; [2]): 703.19 ± 24.07 RFU/min; catalytic efficiency within x-fold of preferred substrate Ac-LEHD-AMC (caspase-8; caspase-8): ≤ 3 fold; catalytic efficiency within x-fold of preferred substrate Ac-LEHD-AMC (caspase-10; caspase-10): ≤ 3 fold; K M (caspase-11; [3]): 503 ± 58.4 µM; Relative k cat/K M (caspase-11; [3]): 0.42 ± 0.02; V max (caspase-11; [3]): 211.01 ± 15.01 RFU/min; fold slower cleavage by caspase-11 than by caspase-8 (caspase-11; relative k cat/K M): ~100 fold; K M (caspase-9 (full-length)): 1513.83 ± 441.20 µM; V max (caspase-9 (full-length)): 208.50 ± 45.00 RFU/min; Relative k cat/K M (caspase-9 (full-length); listed as LESD-AMC): 0.15 ± 0.02
 |  |  |  |  |  |  |  |  |  |  |  |  |  |  |  | Ac-LESD-CH2Cl (SMILES CC(=O)N[C@@H](CC(C)C)C(=O)N[C@@H](CCC(=O)O)C(=O)N[C@@H](CO)C(=O)N[C@@H](CC(=O)O)C(=O)CCl) [N-acetyl-Leu-Glu-Ser-Asp-chloromethylketone] | IC50 of inhibition of caspase activity (rate of cleavage of 200 μM Ac-LEHD-AMC) [1]: 7.45 µM
